Measured values as given in the domain aggregation screens of Martell et al. (2025).

Experiment: soluble fraction after stress (log2 fold change); higher = more stays soluble; pooled small domains, quantitative proteomics
Settings: stress: 50 degC
In short: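 After stress at 50°C, the amount of each protein still soluble was measured. This was done on pooled custom libraries of small protein domains, using high-throughput quantitative proteomics. The figure given is a base-two log fold change and stands for aggregation propensity, with higher values meaning more protein stays in solution.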

Going from “HMTVDTSELEEMIDDLIKEHPNEWERYSSGEKKVQGFFVGQVMKATSGQADGKAINQILSKRVKS” to “HMHINLEGLKKIDFRKKIGFLFGSEASGLSNKEVSYANYTLQIPTNINFKSLNLSHSLIIIAQFISSLLNS”, the “soluble fraction (log2)” value falls from 0.354 to -0.333.

Compared with “HMQLFKFKNAMMELAKNKNITLDTAEKAIGLEAGFTELVARGVKELALSDVIKISKYFNTTMDSVLD”, “HMIEDMTINIEERLSLNGDIKKSEYILQYIKPDFIRKVILSPELNKGEIYIYDSKKKVMYLPLFDQVSEEI” is higher in “soluble fraction (log2)” value: -0.903 for the first, -0.463 for the second.

Going from “HMDKQEKIHKKKIIILEALKRLLQNDVYSRITVQAVADEAGFSKGGLLHYFPTKEEMYIEFMEY” to “HMAIKTGAVTGHGVKVRKGPSTNEKAIHDVLYGSRLQILEEKNGFLKAKFEDGTTGWISKQFVTTTDKNLL”, the “soluble fraction (log2)” value rises from -0.0218 to 0.223.

Compared with “HMEARYQLREVSLDGLRSGMILNADVLSTDGVLMARKGLEVSGLLRSRLEAFAKMERIEPTFKVLVPIAPP”, “HMGLSIPLMGAKASDIEISTLNDEVQRKLKIIVKEQGHENLQRVVPLPSEAREIQAHFINGRLHLR” is higher in “soluble fraction (log2)” value: -0.389 for the first, -0.0466 for the second.

Going from “HMNISLGALVTITDQKGRSHTVTLESGKQFFTNHGSINHDEIIKAGEGGVVASSSGMLYTIFTP” to “HMVTGSIYERKGIYYAIVSYYVDGRRKQKSVSTGLSVKGNKRRALEFLENLKRTYETKESMENMD”, the “soluble fraction (log2)” value falls from -0.836 to -3.16.

Compared with “HMSEEVKSQPISILDLSTRASNGLKNEGIETIGELVKYSEDELLGLDKFGQNSLKEIKKKLEEIGLTLKEH”, “HMGEPTLTIRVVSYNPQSGEMVVVARDPLSGRYALATLNVRTGAGQMIGPQGELLPIENFALGS” is lower in “soluble fraction (log2)” value: -0.0419 for the first, -0.985 for the second.

Compared with “HMNSTRAPYLLDFEEDAAIREARRAGLVPRIARQPSGEPVGRVILQSHDYDYPMKRGDTILITISSG”, “HMDGVLLDHLDGFVTTRRGVEAWLEQPTSFNKPSILLVAADGESTRRAIPSIAFGYDFASRHDIPAYDAG” is higher in “soluble fraction (log2)” value: -0.737 for the first, -0.496 for the second.

First: HMDYTGIPQSLLDLMKKDNIMPMQIQRAVAERNYYPVDTPISNYDPMFIEAKLVGAWDQVLNVISHLDLP
Second: HMGVQKGKDNALAVQQWIAERDATGDFGEYERRGIINRSALFDELGIPRSSMGSNDQIRQMIEAADVRWF
The “soluble fraction (log2)” value of the first is lower: -0.649 for the first, -0.189 for the second.

First: HMPSGLFEPIKKSELSIESIDLLKDQIRAFKQADIRITFGFLLDLITKGENPAYVNASKLFEQAWER
Second: HMEKELVSDFASRISTARSSKGWNHAELGKRMAETVNVIKSAESGKPPTDSVVKKLERVLGITLMEV
The “soluble fraction (log2)” value of the first is higher: 0.0685 for the first, -0.17 for the second.

Compared with “HMGELTNALATLSERERDVARLVAQGLDNRQIAAQLFLSEGTVRNRISDILDKLALTNRTQLAIAWLHAE”, “HMETWDQAYETIKQNILNLTYPPGMPLTEAKLAEELGMSRSPVRTALRMLQTDGLIVTDYYKSMTVKEI” is lower in “soluble fraction (log2)” value: -0.588 for the first, -1.71 for the second.

Compared with “HMERMTSTEILTRDFLTTNSKIVKKSTIEELSEIIHVSPATIIRTVKKMGYSGFSEYKNELINQ”, “HMGPSLIRIASNPVAEVFIDGTRVGTTPFEMPADGTLKTVRLTAKDHDDLVVPLRSMKSMEIMLTLRRI” is lower in “soluble fraction (log2)” value: -0.06 for the first, -0.589 for the second.

“HMFVTGTTIKKLREEKRMTQGELAQMIGVSDKAVSKWETGRGLPDISLLEPLSRALGISVAELFAGQH” and “HMAQPIPSGADIRAAREAAGMTLRRFAEYIAGPDFSTWSRYETGKPIRVKNISPEVWQRVRKFIAQNKG” are within 0.2 log units of each other in “soluble fraction (log2)” value: -0.0392 for the first, -0.0609 for the second.

First: HMHLRYTYIYDNENRVTSKEASKWDSTQEAWVPYFKMNVSYVNNEVELSYARWNSKSNAYDSSIKKTI
Second: HMTETEIVIGGKYRHYKGGEYELVSIVKHSETLEELVIYKSLSTGEMWARPKSLFVGLVDGQPRYTL
The “soluble fraction (log2)” value of the first is lower: -2.36 for the first, -1.85 for the second.

Compared with “HMSDDLIILGYSMLNNALKAFHIDPDSIKKKHWDKLAQDYHLKNKNQILTDIALGKRVNIMVAHQLTTIMD”, “HMQKIYTIARGDTLSHIVAGTLKQQGIAYTTGELYRLVNVVAQYNDILNPNRIYTGHQLDLTPLYSED” is higher in “soluble fraction (log2)” value: -0.633 for the first, -0.103 for the second.

First: HMELEKIRPDLDGLEIMAILGISPSPIVGRAYQYLLDLRMDRGPLGPDAAKAELLNWWSLNQPK
Second: HMASATGVVTAASLNVRSGAGTNYSVVNTLAKGTKVTVLNTADGWYEIEATVNNEKITGYVSATYIAMD
The “soluble fraction (log2)” value of the first is lower: -1.3 for the first, 0.222 for the second.
